The results in this text go back to the supplement of paper PMC9170038.

For the data set, the system named is MS2 coat protein. Description: apparent KD of MS2 coat protein; designed switch direction (-1 OFF switch, 1 ON switch): -1; higher = weaker reporter binding. Summed up:
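RNA switches sharing common flanks were transcribed by stalled E. coli RNA polymerase on Illumina chips. A doubling series of SNAP-549-labelled MS2 coat protein, from 0.7 or 1.5 nM to 3 µM, was applied in Tris-HCl pH 7.5 buffer with KCl, MgCl2, BSA, DTT, tRNA and Tween-20. Each step lasted 0.8–1.5 h at the bottom of the series and 10–20 min at the top. Normalised cluster fluorescence was curve-fitted, giving apparent KD as the per-design median over clusters.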

[1] abbreviates: Eterna round: R95, input ligand: microRNA oligo, concentration not stated.
[2] abbreviates: input ligand: microRNA oligo, concentration not stated.
Setting [3] is: Eterna round: R95, input ligand: FMN 200 uM.
[4] abbreviates: Eterna round: R95, input ligand: none.

Regarding “AGCACGCUUUUGCUCGAUCACAUGAGGAUCACCCAUGUGUGCUAAUAGGCCAAGGUGAAAGCCUCAGACAUAGUUUA [Eternabot (L1) Solution 1] (Eterna round: R97, puzzle: Sensor, turn-off variant 1)”, the “apparent KD of MS2 coat protein” value reads like this: (input ligand: FMN 200 uM) 153 nM; (input ligand: none) 173 nM.

As for “AGCAUGGUAGGAUAUACGGAGCAUUAGGGUUUGUUGUGUGGACAUGAGGAUCACCCAUGUAGAAGGGCCGUGCA [Mat - Exclusion 2 - Mod of JL - D83] (puzzle: Exclusion 2)”, under setting [1], the “apparent KD of MS2 coat protein” value was 33.5 nM.

On to “AGCCACAGAGGAUAUACAUACAUCCAGUAGCAGAUAUUGCUACAUGAGGAUCACCCAUGUAGAAGGCUGUGGCA [Omei Ex2 BD B21] (Eterna round: R97, puzzle: Exclusion 2)”, for which the “apparent KD of MS2 coat protein” value amounted to 139 nM (input ligand: FMN 200 uM) and 1040 nM (input ligand: none).

For the sequence “AGCCCUGCAGGAUAUGCCCGGGAUAACAUGAGGAUCACCCAUGUGACUGAUUGUUAUUCUGCAGAAGGGUAUGGGA [JL-EX5-4.16 ViennaUCT mod] (Eterna round: R97, puzzle: Exclusion 5)”, the “apparent KD of MS2 coat protein” value (input ligand: FMN 200 uM) was determined as 404 nM and the “apparent KD of MS2 coat protein” value (input ligand: none) is 322 nM.

For the sequence “AGCCUACAUGAGGAUCACCCAUGUCAGGAUAUCUCGCGGCGCGUCAAGUUCACGCCGCAGAGAAGGGACUCGGG [Ceusxeatis] (puzzle: Exclusion 1)”, the “apparent KD of MS2 coat protein” value under setting [1] turned out to be 37.6 nM.

For “AGCGAAAAGGCAGGAUAUGAGAAUAGAUAGAGCUCAGAAGGGCCACAUGAGGAUCACCCAUGUAAAGUCUUGAGGCUGCGUGGU [Prohibition 12 - Jieux - Exclusion NG 1] (Eterna round: R96, puzzle: Exclusion NG 1)”, the “apparent KD of MS2 coat protein” value turned out to be 488 nM (input ligand: FMN 200 uM), 68.4 nM under setting [2] and 60.4 nM (input ligand: none).

Turning to “AGCGAUCAUGUUAGGAUAUCCAAGCAGACGCUCAAGGAGAAGGAACAUGAGGAUCACCCAUGUUUGAUCCAAAC [Usrediza] (Eterna round: R97, puzzle: Brourd's mod of Exclusion 4)”, the “apparent KD of MS2 coat protein” value (input ligand: FMN 200 uM) came out at 104 nM and the “apparent KD of MS2 coat protein” value (input ligand: none) worked out at 19.7 nM.

Turning to “AGCGGUGUUCAGGAUAUCUGGUUAUGACACAUGAGAGAAGGGAGCACAUGAGGAUCACCCAUGUGACCUUCGCG [Eternabot (Original) Solution 23] (Eterna round: R97, puzzle: Exclusion 6)”, the “apparent KD of MS2 coat protein” value reads like this: (input ligand: FMN 200 uM) 16 nM; (input ligand: none) 15.5 nM.

Turning to “AGCGUGGAGACAGGAUAUGAGAAUAGAUAGAACUCAGAAGGGUCACAUGAGGAUCACCCAUGUAAAGUCUUGAGGAUGAGUGGU [Prohibition 5 - Jieux - Exclusion NG 1] (Eterna round: R96, puzzle: Exclusion NG 1)”, the “apparent KD of MS2 coat protein” value reads like this: (input ligand: FMN 200 uM) 119 nM; under setting [2], 29 nM; (input ligand: none) 51.1 nM.

As to “AGCGUGGAGACAGGAUAUGAGAAUAGAUAGAACUCAGAAGGGUCACAUGAGGAUCACCCAUGUAAAGUCUUGAGGCUGCGUGGU [Prohibition 7 - Jieux - Exclusion NG 1] (Eterna round: R96, puzzle: Exclusion NG 1)”, the “apparent KD of MS2 coat protein” value (input ligand: FMN 200 uM) was determined as 341 nM, the “apparent KD of MS2 coat protein” value under setting [2] turned out to be 74.1 nM and the “apparent KD of MS2 coat protein” value (input ligand: none) came to 109 nM.

On to “AGCUGUGGCCGAGGAUAUCUAAACCUUCAAACCGAGGUAUACUCGGACAUGAGGAUCACCCAUGUAGAGAAGGCGGUCUCAGCA [Eli eng2 - 035] (Eterna round: R96, puzzle: Exclusion NG 2)”, for which the “apparent KD of MS2 coat protein” value is, setting by setting: (input ligand: FMN 200 uM) 34.7 nM; under setting [2], 9.78 nM; (input ligand: none) 13.4 nM.

On to “AGCUGUGGCCGAGGAUAUCUAACUUCAAUAACCGAAAUAUAAUCGGACAUGAGGAUCACCCAUGUAGAGAAGGCGGUCUCAGCA [Eli eng2 - 082] (Eterna round: R96, puzzle: Exclusion NG 2)”, for which the “apparent KD of MS2 coat protein” value under setting [2] worked out at 10.7 nM.

For the sequence “AGCUGUGGCCGAGGAUAUUGCGAACCAUGGAAAACCAUGGAAACUCUACAUGAGGAUCACCCAUGUAAGAAGGCGGUCUCAGCA [Eli eng2 - 025] (Eterna round: R96, puzzle: Exclusion NG 2)”, the “apparent KD of MS2 coat protein” value worked out at 18.7 nM (input ligand: FMN 200 uM), 10.7 nM under setting [2] and 15.8 nM (input ligand: none).

“AGCUUUUUGUUCGUCUUACACAUGAGGAUCACCCAUGUGUCGGACCGCAUCGAUAGAUGUAGACCGAGAAGCAUGGG [Omdei Mir OFFv1 C9] (Eterna round: R97, puzzle: Sensor, turn-off variant 1)”: the “apparent KD of MS2 coat protein” value (input ligand: FMN 200 uM) turned out to be 95.6 nM and the “apparent KD of MS2 coat protein” value (input ligand: none) was found to be 98.9 nM.

For “AGGAUACAUGAGGAUCACCCAUGUGAGGAUAUACGAUAGCUCAGGAAGAGAUUAGUAUGUAGAAGGUGCGGGUG [Eternabot (L1) Solution 49] (Eterna round: R97, puzzle: Exclusion 1)”, the “apparent KD of MS2 coat protein” value by setting is: (input ligand: FMN 200 uM) 205 nM; (input ligand: none) 198 nM.

Turning to “AGGAUGCUAGGAUAUACAGGUUGAAAACUGAUCGGCGCCAGACAUGAGGAUCACCCAUGUAGAAGGAGCGAGGC [EX2 B.26] (Eterna round: R97, puzzle: Exclusion 2)”, the “apparent KD of MS2 coat protein” value (input ligand: FMN 200 uM) came to 36.1 nM and the “apparent KD of MS2 coat protein” value (input ligand: none) worked out at 38.7 nM.

Turning to “AGGCCCGAUGGAGGAUAUGUAAGUAAUUGAGAUACUUCAUGUCACAUGAGGAUCACCCAUGUACGGCAGAAGGCCGACGGAGCC [Raanoner] (Eterna round: R96, puzzle: Exclusion NG 2)”, the “apparent KD of MS2 coat protein” value is, setting by setting: (input ligand: FMN 200 uM) 24.9 nM; under setting [2], 17.3 nM; (input ligand: none) 20 nM.

Regarding “AGGGAUAAAGGAUAUACAUGAGGAUCACCCAUGUUGAGGAAAGUGAGAGGUGGCGAUAGUAGAAGGUUAGGUAG [JR_Exclu3_Sub082] (puzzle: Exclusion 3)”, the “apparent KD of MS2 coat protein” value came to 86.8 nM under setting [3], 78.8 nM under setting [1] and 137 nM under setting [4].

Turning to “AGGGAUAAAGGAUAUACAUGAGGAUCACCCAUGUUGAGGAAAGUUAGAUGAGGAGGAAGUAGAAGGUUAGACGA [JR_Exclu3_Sub087] (puzzle: Exclusion 3)”, the “apparent KD of MS2 coat protein” value under setting [3] was found to be 24.3 nM, the “apparent KD of MS2 coat protein” value under setting [1] stood at 35.4 nM and the “apparent KD of MS2 coat protein” value under setting [4] amounted to 42.5 nM.

With “AGGUAACAUGAGGAUCACCCAUGUCAGGAUAUCAGUAAGAUUAGAAUAGAGUAGAGUAUGAGAAGGGACUAUAU [Excluse me! 20 - Jieux - Exclusion 1] (puzzle: Exclusion 1)”, the “apparent KD of MS2 coat protein” value under setting [3] is 33.3 nM, the “apparent KD of MS2 coat protein” value under setting [1] was determined as 37.3 nM and the “apparent KD of MS2 coat protein” value under setting [4] is 50 nM.

For “AGGUAGUCAGGAUAUUAGUAGUAGCGGGAUAACGCUACUAUUGAGAAGGGACAUGAGGAUCACCCAUGUUUUGU [JR_Ex4_Sub067] (Eterna round: R97, puzzle: Exclusion 4)”, the “apparent KD of MS2 coat protein” value runs as follows: (input ligand: FMN 200 uM) 54.7 nM; (input ligand: none) 22.5 nM.

As to “AGGUCCUUCUGGAGACAUGAGGAUCACCCAUGUCGAGUCAGCGAGGAUAUCGGUUAAUAAUGUGAUGAGAAGGCGCAGACCGAU [Ex NG3 #53] (Eterna round: R96, puzzle: Exclusion NG 3)”, the “apparent KD of MS2 coat protein” value is, setting by setting: (input ligand: FMN 200 uM) 15.5 nM; under setting [2], 8.55 nM; (input ligand: none) 11.3 nM.
